# In patent US20150017095A1 (AbbVie / Abbott, published 2015):
# Positions count from the first letter of the chain named.
# T1: murine TNFα (murine, UniProt P06804 80-235)
# T1 sequence (looked up): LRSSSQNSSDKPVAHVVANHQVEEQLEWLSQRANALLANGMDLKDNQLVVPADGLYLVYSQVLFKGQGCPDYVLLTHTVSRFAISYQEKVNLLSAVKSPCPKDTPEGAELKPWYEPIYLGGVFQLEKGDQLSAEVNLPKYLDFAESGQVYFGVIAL
# T2: Recombinant Human IL-6 sR (human, UniProt P08887 20-358)
# T2 construct: domain: IL-6 sR; Bought reagent; also called IL-6R
# T2 sequence (looked up): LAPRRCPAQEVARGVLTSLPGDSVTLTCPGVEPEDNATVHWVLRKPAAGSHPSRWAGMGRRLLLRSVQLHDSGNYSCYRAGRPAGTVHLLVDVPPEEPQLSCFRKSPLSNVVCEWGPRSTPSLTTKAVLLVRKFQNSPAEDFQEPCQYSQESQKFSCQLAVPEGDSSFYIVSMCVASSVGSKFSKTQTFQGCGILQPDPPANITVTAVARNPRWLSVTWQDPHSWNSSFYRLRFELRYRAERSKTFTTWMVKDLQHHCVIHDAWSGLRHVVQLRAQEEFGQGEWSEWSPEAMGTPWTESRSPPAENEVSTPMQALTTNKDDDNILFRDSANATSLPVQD
# B1: 2B5-hSL-8C11 anti-murine TNFα/anti-PGE2 DVD-Ig with human short linker (bispecific antibody)
# VH: QVQLQQSGPELVRPGSSVKISCKASGYTFTKYWLGWVKQRPGHGLEWIGDIYPGYDYTHYNEKFKDKATLTVDTSSSTAYMQLSSLTSEDSAIYYCARSDGSSTYWGQGTLVTVSAASTKGPEFQLQQSGPELVKPGASVRISCKASGYSFTDYNMNWVKQSNGKSLEWVGVINPNYGSSTYNQKFKGKATLTVDQSSSTAYMQLNSLTSEDSAVYYCARKWGQLGRGFFDVWGTGTTVTVSS
# VL: DVLMTQTPLSLPVSLGDQASISCTSSQNIVHSNGNTYLEWYLQRPGQSPKLLIYKVSNRFSGVPDRFSGSGSGTVFTLKISRVEAEDLGVYYCFQVSHVPYTFGGGTKLEIKRTVAAPQIVLSQSPAILSASPGEKVTMTCRASSSVSYMHWFQQKPGSSPKPWIYATSNLASGVPARFSGSGSGTSYSLTISRVEAEDAATYYCQQWSSSPLTFGAGTKLELKR
# notes: DVD-Ig; Outer domain is 2B5 (PGE2), inner domain is 8C11 (murine TNFα); also called 2B5-huSL-8C11
# B2: DVD151 (PGE2 / IL-6R DVD-Ig) (bispecific antibody, human IgG1)
# VH: EVQLVQSGAEVKKPGASVKVSCKASGYTFTKYWLGWVRQAPGQGLEWMGDIYPGYDYTHYNEKFKDRVTLTTDTSTSTAYMELRSLRSDDTAVYYCARSDGSSTYWGQGTLVTVSSASTKGPEVQLQESGPGLVRPSQTLSLTCTVSGYSITSDHAWSWVRQPPGRGLEWIGYISYSGITTYNPSLKSRVTMLRDTSKNQFSLRLSSVTAADTAVYYCARSLARTTAMDYWGQGSLVTVSS
# VL: DVLMTQTPLSLPVTPGEPASISCTSSQNIVHSNGNTYLEWYLQKPGQSPQLLIYKVSNRFSGVPDRFSGSGSGTDFTLKISRVEAEDVGVYYCFQVSHVPYTFGGGTKVEIKRTVAAPDIQMTQSPSSLSASVGDRVTITCRASQDISSYLNWYQQKPGKAPKLLIYYTSRLHSGVPSRFSGSGSGTDFTFTISSLQPEDIATYYCQQGNTLPYTFGQGTKVEIKR
# notes: Outer domain is AB048 (PGE2), inner domain is AB054 (IL-6R); also called VD151H; VD151L
# B3: DVD163 (PGE2 / NGF DVD-Ig) (bispecific antibody)
# VH: EVQLVQSGAEVKKPGASVKVSCKASGYTFTKYWLGWVRQAPGQGLEWMGDIYPGYDYTHYNEKFKDRVTLTTDTSTSTAYMELRSLRSDDTAVYYCARSDGSSTYWGQGTLVTVSSASTKGPQVQLQESGPGLVKPSETLSLTCTVSGFSLIGYDLNWIRQPPGKGLEWIGIIWGDGTTDYNSAVKSRVTISKDTSKNQFSLKLSSVTAADTAVYYCARGGYWYATSYYFDYWGQGTLVTVSS
# VL: B2 VL with D146S, S149N, Y150N, L172F, G209E, N210H, V222L
# notes: Outer domain is AB048 (PGE2), inner domain is AB020 (NGF); also called VD163H; VD3163L
# B4: DVD154 (IL-15 / PGE2 DVD-Ig) (bispecific antibody)
# VH: EVQLVQSGAEVKKPGESLKISCKVSGYFFTTYWIGWVRQMPGKGLEYMGIIYPGDSDTRYSPSFQGQVTISADKSISTAYLQWSSLKASDTAMYYCARGGNWNCFDYWGQGTLVTVSSASTKGPEVQLVQSGAEVKKPGASVKVSCKASGYTFTKYWLGWVRQAPGQGLEWMGDIYPGYDYTHYNEKFKDRVTLTTDTSTSTAYMELRSLRSDDTAVYYCARSDGSSTYWGQGTLVTVSS
# VL: EIVLTQSPGTLSLSPGERATLSCRASQSVSSSYLAWYQQKPGQAPRLLIYGASRRATGIPDRFSGSGSGTDFTLTISRLEPEDFAVYYCQRYGSSHTFGQGTKLEISRTVAAPDVLMTQTPLSLPVTPGEPASISCTSSQNIVHSNGNTYLEWYLQKPGQSPQLLIYKVSNRFSGVPDRFSGSGSGTDFTLKISRVEAEDVGVYYCFQVSHVPYTFGGGTKVEIKR
# notes: Outer domain is AB049 (IL-15), inner domain is AB048 (PGE2); also called VD154H; VD154L
# B5: AB054 anti-IL-6R parent antibody (antibody, human IgG1, V domains shown)
# VH: EVQLQESGPGLVRPSQTLSLTCTVSGYSITSDHAWSWVRQPPGRGLEWIGYISYSGITTYNPSLKSRVTMLRDTSKNQFSLRLSSVTAADTAVYYCARSLARTTAMDYWGQGSLVTVSS
# VL: DIQMTQSPSSLSASVGDRVTITCRASQDISSYLNWYQQKPGKAPKLLIYYTSRLHSGVPSRFSGSGSGTDFTFTISSLQPEDIATYYCQQGNTLPYTFGQGTKVEIKR
# B6: 2B5-hLL-8C11 anti-murine TNFα/anti-PGE2 DVD-Ig with human long linker (bispecific antibody, human IgG1)
# VH: QVQLQQSGPELVRPGSSVKISCKASGYTFTKYWLGWVKQRPGHGLEWIGDIYPGYDYTHYNEKFKDKATLTVDTSSSTAYMQLSSLTSEDSAIYYCARSDGSSTYWGQGTLVTVSAASTKGPSVFPLAPEFQLQQSGPELVKPGASVRISCKASGYSFTDYNMNWVKQSNGKSLEWVGVINPNYGSSTYNQKFKGKATLTVDQSSSTAYMQLNSLTSEDSAVYYCARKWGQLGRGFFDVWGTGTTVTVSS
# VL: DVLMTQTPLSLPVSLGDQASISCTSSQNIVHSNGNTYLEWYLQRPGQSPKLLIYKVSNRFSGVPDRFSGSGSGTVFTLKISRVEAEDLGVYYCFQVSHVPYTFGGGTKLEIKRTVAAPSVFIFPPQIVLSQSPAILSASPGEKVTMTCRASSSVSYMHWFQQKPGSSPKPWIYATSNLASGVPARFSGSGSGTSYSLTISRVEAEDAATYYCQQWSSSPLTFGAGTKLELKR
# notes: DVD-Ig; Outer domain is 2B5 (PGE2), inner domain is 8C11 (murine TNFα)
# B7: anti-TNFα monoclonal antibody clone 8C11 (antibody, V domains shown)
# VH: EFQLQQSGPELVKPGASVRISCKASGYSFTDYNMNWVKQSNGKSLEWVGVINPNYGSSTYNQKFKGKATLTVDQSSSTAYMQLNSLTSEDSAVYYCARKWGQLGRGFFDVWGTGTTVTVSS
# VL: QIVLSQSPAILSASPGEKVTMTCRASSSVSYMHWFQQKPGSSPKPWIYATSNLASGVPARFSGSGSGTSYSLTISRVEAEDAATYYCQQWSSSPLTFGAGTKLELKR
# notes: Murine hybridoma antibody against murine TNFα; also called 8C11-1E10; anti-mouse TNF monoclonal antibody
# How the values were obtained:
# murine TNFα [1] = target: T1, murine TNFα; experiment: cell-based or functional assay
# murine TNFα [2] = target: T1, murine TNFα; experiment: ELISA, TNFα binding activity (Example 2.2.3.3)
# [3] = target: T2, Recombinant Human IL-6 sR; experiment: direct bind ELISA, antigen coated on plate (C-terminal VD)
# Experimental: (§1) Enzyme Linked Immunosorbent Assays to screen for antibodies that bind a desired target antigen were performed as follows. High bind ELISA plates (Corning Costar #3369, Acton, Mass.) were coated with 100 μL/well of 10 μg/ml of desired target antigen (R&D Systems, Minneapolis, Minn.) or desired target antigen extra-cellular domain/FC fusion protein (R&D Systems, Minneapolis, Minn.) or monoclonal mouse anti-polyHistidine antibody (R&D Systems # MAB050, Minneapolis, Minn.) in phosphate buffered saline (10×PBS, Abbott Bioresearch Center, Media Prep# MPS-073, Worcester, Mass.) overnight at 4° C. Plates were washed four times with PBS containing 0.02% Tween 20. Plates were blocked by the addition of 300 μL/well blocking solution (non-fat dry milk powder, various retail suppliers, diluted to 2% in PBS) for ½ hour at room temperature. Plates were washed four times after blocking with PBS containing 0.02% Tween 20.
# (§2) Plates were washed 4 times with PBS containing 0.02% Tween 20.
# (§3) One hundred microliters of enhanced TMB solution (Neogen Corp. #308177, K Blue, Lexington, Ky.) was added to each well and incubated for 10 minutes at room temperature. The reaction was stopped by the addition of 50 μL 1N sulphuric acid.
# [4] = target: T2, Recombinant Human IL-6 sR; experiment: BIACORE SPR, DVD-Ig captured, antigen in flow (C-terminal VD)
# Experimental: (§4) The BIACORE assay (Biacore, Inc, Piscataway, N.J.) determines the affinity of antibodies or DVD-Ig with kinetic measurements of on-rate and off-rate constants. […] All chemicals are obtained from Biacore® AB (Uppsala, Sweden) or otherwise from a different source as described in the text. For example, approximately 5000 RU of goat anti-mouse IgG, (Fcγ), fragment specific polyclonal antibody (Pierce Biotechnology Inc, Rockford, Ill.) diluted in 10 mM sodium acetate (pH 4.5) is directly immobilized across a CM5 research grade biosensor chip using a standard amine coupling kit according to manufacturer's instructions and procedures at 25 μg/ml. Unreacted moieties on the biosensor surface are blocked with ethanolamine. Modified carboxymethyl dextran surface in flowcell 2 and 4 is used as a reaction surface. Unmodified carboxymethyl dextran without goat anti-mouse IgG in flow cell 1 and 3 is used as the reference surface. For kinetic analysis, rate equations derived from the 1:1 Langmuir binding model are fitted simultaneously to association and dissociation phases of all eight injections (using global fit analysis) with the use of Biaevaluation 4.0.1 software. Purified antibodies or DVD-Ig are diluted in HEPES-buffered saline for capture across goat anti-mouse IgG specific reaction surfaces. Antibodies or DVD-Ig to be captured as a ligand (25 μg/m) are injected over reaction matrices at a flow rate of 5 μl/min. The association and dissociation rate constants, kₒₙ (M⁻¹s⁻¹) and koff (s⁻¹) are determined under a continuous flow rate of 25 μl/min. Rate constants are derived by making kinetic binding measurements at different antigen concentrations ranging from 10-200 nM. The equilibrium dissociation constant (M) of the reaction between antibodies or DVD-Igs and the target antigen is then calculated from the kinetic rate constants by the following formula: KD=koff/kₒₙ. Binding is recorded as a function of time and kinetic rate constants are calculated.
# Recombinant Human β-NGF = Recombinant Human β-NGF (human, UniProt P01138 122-239, limits assumed); experiment: BIACORE SPR, DVD-Ig captured, antigen in flow (C-terminal VD); BIACORE, DVD-Ig captured, NGF in flow, 25 C; C-terminal VD
# Experimental: as §4
# Recombinant Human IL-15 = Recombinant Human IL-15 (human, UniProt P40933 49-162); experiment: BIACORE SPR, DVD-Ig captured, antigen in flow (N-terminal VD)
# Experimental: as §4
# [5] = target: T2, Recombinant Human IL-6 sR; experiment: direct bind ELISA, antigen coated on plate
# Experimental: as §1, §2, §3
# [6] = target: T2, Recombinant Human IL-6 sR; experiment: BIACORE SPR, antibody captured, antigen in flow
# Experimental: as §4
# Recombinant Human IL-15, sequence (P40933 49-162 limits assumed): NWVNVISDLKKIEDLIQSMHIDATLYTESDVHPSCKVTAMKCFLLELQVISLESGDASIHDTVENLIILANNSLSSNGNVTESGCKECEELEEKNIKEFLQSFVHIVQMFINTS
# Recombinant Human β-NGF, sequence (P01138 122-239 limits assumed): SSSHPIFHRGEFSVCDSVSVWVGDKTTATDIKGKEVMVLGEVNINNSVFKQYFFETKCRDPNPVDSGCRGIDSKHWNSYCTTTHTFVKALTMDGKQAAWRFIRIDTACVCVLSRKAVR
binder,measurement,setting,value
B1,"IC50, L929 assay (TNFα-induced cell death)",murine TNFα [1],4.39 nM
same,IC50,murine TNFα [2],0.234 nM
B2,EC50,[3],26.5 µM
same,Kd,[4],5.94 nM
same,koff,[4],0.00015 s⁻¹
same,kon,[4],25300 M⁻¹ s⁻¹
B3,Kd,Recombinant Human β-NGF,0.122 nM
same,koff,Recombinant Human β-NGF,1.03e-06 s⁻¹
same,kon,Recombinant Human β-NGF,8400 M⁻¹ s⁻¹
B4,Kd,Recombinant Human IL-15,4.89 nM
same,koff,Recombinant Human IL-15,0.00198 s⁻¹
same,kon,Recombinant Human IL-15,404000 M⁻¹ s⁻¹
B5,EC50,[5],1.75 nM
same,Kd,[6],0.448 nM
same,koff,[6],0.00016 s⁻¹
same,kon,[6],357000 M⁻¹ s⁻¹
B6,"IC50, L929 assay (TNFα-induced cell death)",murine TNFα [1],0.088 nM
same,IC50,murine TNFα [2],0.256 nM
B7,"IC50, L929 assay (TNFα-induced cell death)",murine TNFα [1],5.85 nM
same,IC50,murine TNFα [2],0.201 nM
